Laboratory results: paper PMC12499412, “Engineering DNA Origami Captors for TGFβ1 Sequestration to Enhance Tumor Immune Modulation and Therapy”

Experiments:
[1] = target: TGFβ1 (active, mature) (human, UniProt P01137 279-390); test: MST; 37 °C, 2 h; MST: 30 nM Cy5-a'-Apt final with 45 pM (4.5 pM in Fig S3 legend) to 1.5 uM protein, 37 °C, 2 h; specificity MST 5 nM aptamer, 0.25 uM protein; buffer, salt and; conditions: protein: commercial; chain copies: 2; label: 5'-Cy5; annealed 95 °C 5 min, 4 °C 30 min
Sequence of TGFβ1 (active, mature) (P01137 279-390): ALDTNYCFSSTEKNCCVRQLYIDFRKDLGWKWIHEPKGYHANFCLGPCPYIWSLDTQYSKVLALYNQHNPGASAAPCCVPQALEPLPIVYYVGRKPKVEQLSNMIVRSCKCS

[2] = target: IFN-γ (human, UniProt P01579 24-166); test: MST; aptamer:protein 1:50; MST: 30 nM Cy5-a'-Apt final with 45 pM (4.5 pM in Fig S3 legend) to 1.5 uM protein, 37 °C, 2 h; specificity MST 5 nM aptamer, 0.25 uM protein; buffer, salt and; conditions: protein: commercial; chain copies: 2; label: 5'-Cy5; annealed 95 °C 5 min, 4 °C 30 min
Sequence of IFN-γ (P01579 24-166): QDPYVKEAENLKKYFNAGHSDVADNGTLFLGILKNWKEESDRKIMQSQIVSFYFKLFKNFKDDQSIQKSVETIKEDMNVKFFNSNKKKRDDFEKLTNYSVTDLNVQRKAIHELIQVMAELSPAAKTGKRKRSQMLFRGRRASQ

B1: Cy5-a'-Apt (ssDNA)
DNA: TCGCTCGGCTTCACGAGATTCGTGTCGTTGTGTCCTGTACCCGCCTTGACCAGTCACTCTAGAGCATCCGGACTGTAGATGGAGTGTGGTGTGAAG
modifications: phosphorothioates at A and C bases (positions marked * in Table S3)
Kd [1]: 28 nM
binding result [2]: no binding
